# Assay results taken from the supplement of paper PMC9170038.
# Tested on: MS2 coat protein
# Assay: apparent KD of MS2 coat protein, switch OFF state (with FMN for OFF switches, without FMN for ON switches); designed switch direction (-1 OFF switch, 1 ON switch): -1; higher = weaker reporter binding
# Details: FMN input: 0 or 200 uM; Eterna round: R93 (includes R88 designs)
# Summary of the method: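 With or without constant ligand, designed RNA switches in 100 mM Tris-HCl pH 7.5, 80 mM KCl and 4 mM MgCl2 were titrated with SNAP-549-labelled MS2 coat protein. Concentrations went up in twofold steps from 0.7 or 1.5 nM to 3 µM. The switches had been transcribed on-chip from Illumina sequencing clusters, and apparent KD is the per-design median of normalised cluster binding-curve fits.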
row,Sequence,apparent KD of MS2 coat protein [nM]
1,AAGUUAUUAGGAUAUACUAGUGCGAUUAAUACGCUGAUAGUACAUGAGGAUCACCCAUGUAGAAGGAAUAAAAA [JR_Exc002_Sub409],19.1
2,AAGAGUAGAGGAUAUACAUGAGGAUCACCCAUGUAAUCCGGAUAAGGAAGCAUGUCGUGUAGAAGGCUGCAUGA [MOD 3 of Nando (MS2 Riboswitches- Exclusion 3)],14.1
3,"AAGGGACAUGAGGAUCACCCAUGUCAGGAUAUGAUGCGAAUAAAGAAAGAAGAAAGCAUCAGAAGGGACGCCAA [58%, Disencluded 3, 5]",39.5
4,AAGAAUCGAGGAUAUACAUGAGGAUCACCCAUGUAAAAGAAAGAGGGAAAAGAGAAAAGUAGAAGGCGAAAGAA [Ptolemy Memphitis],21.6
5,"AAAAAACAUGAGGAUCACCCAUGUCAGGAUAUGAACGAAAAUAAAUAAAAAUAAAAGUUCAGAAGGGACGAAAA [66%, Wbt, 17]",41.5
6,AUAAAGUCAGGAUAUGUAAAAAUAACGAAAGUUAUAAAUAAACAGAAGGGACAUGAGGAUCACCCAUGUACAAU [Opal 15],21.2
7,UCCGGACAUGAGGAUCACCCAUGUGAGGAUAUAUAAAGUGGGACUGGAAACAGUCCCAAUAGAAGGCACAUGAA [Celaar],19.6
8,AAGUACUCAGGAUAUACAUGAGGAUCACCCAUGUGAAAAAAGCGUAAAAAACGCACAUGUAGAAGGGAGUACAA [JL In thr Red Again],333
9,"AAGGGACAUGAGGAUCACCCAUGUCAGGAUAUGAUGCGAAUAAAGAAAGAAGAAAGCAUCAGAAGGGACGCCUA [58%, Disencluded 3, 6]",27.6
10,AAGAGGUGAGGAUAUCGAAGAAGAAGAAGAAGAAGAAGAAACGAGAAGGCACAUGAGGAUCACCCAUGUAAGAA [Exclusion 4],18.8
11,AGAUGACAUGAGGAUCACCCAUGUAAGGAUAUACGAGUAGGAGAAUAAAAUGAUAGAAGUAGAAGGUACGUAGA ['Exclusion 1' Lab (2)],58.1
12,AAAAAGCGAGGAUAUACAUGAGGAUCACCCAUGUAAAAAAAAAGAGAUGAAACAUCAUGUAGAAGGCGCAAAAA [Excls3-I],67.1
13,AAGAAGGCAGGAUAUACAAAAUAAAAGAAAAGAAAGAAAGAACAUGAGGAUCACCCAUGUAGAAGGGCCAAGAA [Seankhibre Amenemhet VI],37.2
14,ACGUUGAGAGGAUAUACGAACAUGUCAAAAGACGUGAAGGGACAUGAGGAUCACCCAUGUAGAAGGCUCAACGA [Mat - Exclusion 2 - JL mod - D9],186
15,AACUGACAUGAGGAUCACCCAUGUCAGGAUAUGACAUCGAAAAAAAAAAAAAUCGUUGUCAGAAGGGACAUGGG [Design 73: Sub-opt QB],9.44
16,AAGAAACAUGAGGAUCACCCAUGUCAGGAUAUUGAAAAGAAAAGAAAAGAAAGAAGAACAAGAAGGGACAAAGG [Neferkare (III) Neby],40.3
17,GAAGAACAUGAGGAUCACCCAUGUCAGGAUAUGCAGAAGGGAAUAAUAACUUCUGGAAGCAGAAGGGACAAGAA [Ex 1 May 47],30.5
18,CAGUACUGAGGAUAUACAUGAGGAUCACCCAUGUGGUUAAGCUAGGAAACUAGCACAUGUAGAAGGCAGUACUG [Ex3: 814],19.5
19,AAGAUCAGAGGAUAUACAUAAGGUGAUGGAAACAUCGCCAAACAUGAGGAUCACCCAUGUAGAAGGCUGAUCAA [Mat - Exclusion 2 - JL mod - D61],43.7
20,GCAAAGUGAGGAUAUACGCGAACAAUAAAAAUAAAGAAAGCGUAGAAGGCACAUGAGGAUCACCCAUGUCCAGC [Mat - Exaclusion 4 - Eli mod - D78],25.9
21,AACAGUACAGGAUAUACAUGAGGAUCACCCAUGUGAAAAUUAAGUGGGAAACCACAAGGUAGAAGGGUACUGGA [Mat - Exclusion 3 - Eli mod - D64],157
22,GGUUGAAAAGGAUAUACAUGAGGAUCACCCAUGUGAGAGAAAAAAGUGAGAAAGAAAAGUAGAAGGUUUUGACG [salish99-ex3-61],44
23,CUCUAGUGAGGAUAUGGAAGAAAAGAAGAGAAAGAAAAGAACCAGAAGGCACAUGAGGAUCACCCAUGUAAGAA [EteRNA is fun!],46.3

row,Sequence,apparent KD of MS2 coat protein [nM]
1,GUAAACCUAGGAUAUACAUGAGGAUCACCCAUGUAAAGUUUCGUAAAAAGAAAAUCGAGUAGAAGGAGGUAGAU [JR_Exc003_Sub1222],26.6
2,GAGGCUGAAGGAUAUACAAGGGCCUCACCGCCAAAACGGAAACAUGAGGAUCACCCAUGUAGAAGGUCAAUAAA [Reisvexe],77
3,UAAACCCUAGGAUAUACAUGAGGAUCACCCAUGUUUGUCGAAGAACGAACAGUCCUCAGUAGAAGGAGGACGAA [Geriza],24.3
4,AAGUUAUUAGGAUAUACUAGUGCAAUUAAUACGCUGAUAGUACAUGAGGAUCACCCAUGUAGAAGGAAUAAAAA [Mat - Exclusion 2 - JL mod - D66],20.6
5,AACAGUACAGGAUAUACAUGAGGAUCACCCAUGUAGAGAGAAUAAAACAAAAAUAAAAGUAGAAGGGUACUGGA [Ruby 48],19.3
6,AAAAAACAUGAGGAUCACCCAUGUUAGGAUAUUCCUAAAAAAAAAAAAAAAAAAAAUGGAAGAAGGGACAAAAA [excalibur 9],20.6
7,AAGAAGACAGGAUAUACAUGAAAGAAAGAAAAGAAAAGAAAACAUGAGGAUCACCCAUGUAGAAGGGUCAAGAA [EteRNA is fun!],34.9
8,"AACUGGGCAGGAUAUACAUGAGGAUCACCCAUGUAAAGAAAAGAAAGGUCCGAGGAAAGUAGAAGGGCCUGGAA [Variant 5 of Mod 1 of Ex3 sub 3, by Tesla's Dusciple Round 1]",38.9
9,AGGAAACAUGAGGAUCACCCAUGUGAGGAUAUUGAAAAGAAAAGAAAAGAAAGAAGAACAAGAAGGUACAAGAA [Nyuserre Ini],27.3
10,AAAAAACAUGAGGAUCACCCAUGUCAGGAUAUCGAAAAGAAAAGAAAAGAAAGAAGAACGAGAAGGGACAAGAA [Menkaura],24.5
11,AAAAAGUGAGGAUAUUCGGAUAGGAAAACGAAAACCUAUCCGAAGAAGGCACAUGAGGAUCACCCAUGUAAAGA [Mat - Exaclusion 4 - Eli mod - D40],40.2
12,AAAAAACAUGAGGAUCACCCAUGUGAGGAUAUGCUAAAAAAAUCCGCAUGAAAAAAUAGCAGAAGGCACAUAAA [PK2],52.5
13,CCCAUGUCAGGAUAUCAGUAGUAAAAAAAAAAAAUUACUACUGAGAAGGGACAUGAGGAUCACCCAUGUUCCAA [EX4 318: Super Stable 18],53
14,AGAAAGUCAGGAUAUACGAAAAAGAAAAAAGACGAGAACGGACAUGAGGAUCACCCAUGUAGAAGGGACAAGAA [Diamond 14],51.4
15,AAAAAACAUGAGGAUCACCCAUGUCAGGAUAUGCCAACCUAAAAAAAAAAAAAAAAACGUAGAAGGGACAAAAA [Bilbo Confounded 2 - Jieux - Exclusion 1],23.5
16,AACUAGUGAGGAUAUGCAAGAAAAAAAAAAAAAAUAAAGGGACAUGAGGAUCACCCAUGUAGAAGGCACUAACA [Diamond 68],58.8
17,AGUCAUACAGGAUAUACAUGAGGAUCACCCAUGUAAAUCCUAAAAAAGUGAUCCUCAUGUAGAAGGGUAUGACA [EX3 220: Super Stable 20],19.7
18,AACAGUACAGGAUAUACAUGAGGAUCACCCAUGUGAGAAUUAAGCAGCGUAACACACAGUAGAAGGGUAAUGGA [Ruby 20],40.7
19,AAAUAGUUAGGAUAUACAUGAGGAUCACCCAUGUGGACUUAUGGAGAAUAGUCUAAUGGUAGAAGGGACUAAAA [EX2 Malc#24],45.8
20,CUCUUGUGAGGAUAUCUAAGAAAAGAAAAGAAAGAAAAGAAAGAGAAGGCACAUGAGGAUCACCCAUGUAAGAA [EteRNA is fun!],84.6
21,AACCAACAUGAGGAUCACCCAUGUCAGGAUAUGCAAACAACAAACAACAAACAACAAAGCAGAAGGGACAAAAA [Amethyst 82],19.5
22,AAAAAACAUGAGGAUCACCCAUGUAAGGAUAUCGGAAAAGGAAAAAAAAAAAAGAAGACGAGAAGGUACACCAA,31.5
